Patent publication US11267868 (dated 2022)

How the values were obtained:
Experiment in all cases: SPR
FcgRIIaR = molecular target: T1, FcgRIIaR (human, UniProt P12318)
T1 chain: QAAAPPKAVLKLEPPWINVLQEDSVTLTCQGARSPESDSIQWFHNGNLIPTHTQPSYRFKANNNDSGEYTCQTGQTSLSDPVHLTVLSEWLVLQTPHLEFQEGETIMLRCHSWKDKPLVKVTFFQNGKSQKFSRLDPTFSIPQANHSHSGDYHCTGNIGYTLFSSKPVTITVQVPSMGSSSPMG

FcgRIIaH = molecular target: T2, FcgRIIaH (human, UniProt P12318)
T2 chain: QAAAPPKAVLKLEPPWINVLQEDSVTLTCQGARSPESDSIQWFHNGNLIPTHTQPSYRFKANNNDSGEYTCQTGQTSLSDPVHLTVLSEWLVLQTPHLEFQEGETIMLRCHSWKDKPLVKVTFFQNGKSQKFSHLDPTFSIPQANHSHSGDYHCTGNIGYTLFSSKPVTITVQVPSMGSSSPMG

FcgRIIb = molecular target: T3, FcgRIIb (human, UniProt P31994)
T3 chain: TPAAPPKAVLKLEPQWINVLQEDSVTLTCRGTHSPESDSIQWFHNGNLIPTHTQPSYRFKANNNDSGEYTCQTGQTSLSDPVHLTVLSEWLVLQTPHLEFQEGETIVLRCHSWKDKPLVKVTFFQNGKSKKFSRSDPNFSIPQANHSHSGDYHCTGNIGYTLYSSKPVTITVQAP

FcgRIIIaV = FcgRIIIaV (human, UniProt P08637)
FcgRIa = molecular target: T4, FcgRIa (human, UniProt P12314)
T4 chain: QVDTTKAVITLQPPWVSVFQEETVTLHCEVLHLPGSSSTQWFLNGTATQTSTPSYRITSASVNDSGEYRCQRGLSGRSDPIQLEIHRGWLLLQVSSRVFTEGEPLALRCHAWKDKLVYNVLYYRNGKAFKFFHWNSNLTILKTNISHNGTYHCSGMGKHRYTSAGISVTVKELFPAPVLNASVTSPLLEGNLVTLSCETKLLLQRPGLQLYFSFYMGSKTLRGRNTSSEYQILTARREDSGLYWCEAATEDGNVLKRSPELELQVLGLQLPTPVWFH

Sequence of FcgRIIIaV (P08637 17-208 F176V): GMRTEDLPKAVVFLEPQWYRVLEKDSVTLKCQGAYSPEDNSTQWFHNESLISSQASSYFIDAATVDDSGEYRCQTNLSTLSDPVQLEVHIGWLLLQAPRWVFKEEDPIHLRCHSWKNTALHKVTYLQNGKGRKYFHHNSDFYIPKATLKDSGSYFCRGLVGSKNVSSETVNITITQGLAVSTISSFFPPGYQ

| Binder | Kd (FcgRIIaR) | Kd (FcgRIIaH) | Kd (FcgRIIb) | Kd (FcgRIIIaV) | Kd (FcgRIa) |
| --- | --- | --- | --- | --- | --- |
| IL6R-P729/IL6R-L (antibody) chain 1: QVQLQESGPGLVKPSETLSLTCAVSGHSISHDHAWSWVRQPPGEGLEWIGFISYSGITNYNPSLQGRVTISRDNSKNTLYLQMNSLRAEDTAVYYCARSLARTTAMDYWGEGTLVTVSSASTKGPSVFPLAPSSKSTSGGTAALGCLVKDYFPEPVTVSWNSGALTSGVHTFPAVLQSSGLYSLSSVVTVPSSSLGTQTYICNVNHKPSNTKVDKKVEPKSCDKTHTCPPCPAPELFGQDSVMLFPPKPKDTLMISRTPEVTCVVVDVSPEDPEVKFNWYVDGVEVHNAKTKPREEQENSTYRVVSVLTVLHQDWLNGKEYKCKVSNKALPAPIEKTISKAKGQPREPQVYTLPPSRDELTKNQVSLTCLVKGFYPSDIAVEWESNGQPENNYKTTPPVLDSDGSFFLYSKLTVDKSRWQQGNVFSCSVMHEALHNHYTQKSLSLSP chain 2: not shown | 83 µM | 180 µM | 4.4 µM | 56 µM | 0.66 µM |
| IL6R-P689/IL6R-L (antibody) chain 1: QVQLQESGPGLVKPSETLSLTCAVSGHSISHDHAWSWVRQPPGEGLEWIGFISYSGITNYNPSLQGRVTISRDNSKNTLYLQMNSLRAEDTAVYYCARSLARTTAMDYWGEGTLVTVSSASTKGPSVFPLAPSSKSTSGGTAALGCLVKDYFPEPVTVSWNSGALTSGVHTFPAVLQSSGLYSLSSVVTVPSSSLGTQTYICNVNHKPSNTKVDKKVEPKSCDKTHTCPPCPAPELLGGDSVMLFPPKPKDTLMISRTPEVTCVVVDVSPEDPEVKFNWYVDGVEVHNAKTKPREEQENSTYRVVSVLTVLHQDWLNGKEYKCKVHNKALPAPIEKTISKAKGQPREPQVYTLPPSRDELTKNQVSLTCLVKGFYPSDIAVEWESNGQPENNYKTTPPVLDSDGSFFLYSKLTVDKSRWQQGNVFSCSVMHEALHNHYTQKSLSLSP chain 2: not shown | 78 µM | 120 µM | 4.7 µM | 52 µM | 0.028 µM |
| IL6R-P692/IL6R-L (antibody) chain 1: QVQLQESGPGLVKPSETLSLTCAVSGHSISHDHAWSWVRQPPGEGLEWIGFISYSGITNYNPSLQGRVTISRDNSKNTLYLQMNSLRAEDTAVYYCARSLARTTAMDYWGEGTLVTVSSASTKGPSVFPLAPSSKSTSGGTAALGCLVKDYFPEPVTVSWNSGALTSGVHTFPAVLQSSGLYSLSSVVTVPSSSLGTQTYICNVNHKPSNTKVDKKVEPKSCDKTHTCPPCPAPELFGQDSVMLFPPKPKDTLMISRTPEVTCVVVDVSHEDPEVKFNWYVDGVEVHNAKTKPREEQENSTYRVVSVLTVLHQDWLNGKEYKCKVSNKALPHPIEKTISKAKGQPREPQVYTLPPSRDELTKNQVSLTCLVKGFYPSDIAVEWESNGQPENNYKTTPPVLDSDGSFFLYSKLTVDKSRWQQGNVFSCSVMHEALHNHYTQKSLSLSP chain 2: not shown | 56 µM | 120 µM | 2.7 µM | 57 µM | 0.53 µM |
| IL6R-P602/IL6R-L (antibody) chain 1: QVQLQESGPGLVKPSETLSLTCAVSGHSISHDHAWSWVRQPPGEGLEWIGFISYSGITNYNPSLQGRVTISRDNSKNTLYLQMNSLRAEDTAVYYCARSLARTTAMDYWGEGTLVTVSSASTKGPSVFPLAPSSKSTSGGTAALGCLVKDYFPEPVTVSWNSGALTSGVHTFPAVLQSSGLYSLSSVVTVPSSSLGTQTYICNVNHKPSNTKVDKKVEPKSCDKTHTCPPCPAPELLGGDSVMLFPPKPKDTLMISRTPEVTCVVVDVSHEDPEVKFNWYVDGVEVHNAKTKPREEVENSTYRVVSVLTVLHQDWLNGKEYKCKVSNKALPAPIEKTISKAKGQPREPQVYTLPPSRDELTKNQVSLTCLVKGFYPSDIAVEWESNGQPENNYKTTPPVLDSDGSFFLYSKLTVDKSRWQQGNVFSCSVMHEALHNHYTQKSLSLSP chain 2: not shown | 44 µM | 100 µM | 2.4 µM | 61 µM | 0.019 µM |
| IL6R-P654/IL6R-L (antibody) chain 1: QVQLQESGPGLVKPSETLSLTCAVSGHSISHDHAWSWVRQPPGEGLEWIGFISYSGITNYNPSLQGRVTISRDNSKNTLYLQMNSLRAEDTAVYYCARSLARTTAMDYWGEGTLVTVSSASTKGPSVFPLAPSSKSTSGGTAALGCLVKDYFPEPVTVSWNSGALTSGVHTFPAVLQSSGLYSLSSVVTVPSSSLGTQTYICNVNHKPSNTKVDKKVEPKSCDKTHTCPPCPAPELLGGDSVMLFPPKPKDTLMISRTPEVTCVVVDVSHEDPEVKFNWYVDGVEVHNAKTKPREEQENSTYRVVSVLTVLHQDWLNGKEYKCKVNNKALPAPIEKTISKAKGQPREPQVYTLPPSRDELTKNQVSLTCLVKGFYPSDIAVEWESNGQPENNYKTTPPVLDSDGSFFLYSKLTVDKSRWQQGNVFSCSVMHEALHNHYTQKSLSLSP chain 2: not shown | 39 µM | 68 µM | 2.6 µM | 48 µM | 0.016 µM |
| IL6R-P656/IL6R-L (antibody) chain 1: QVQLQESGPGLVKPSETLSLTCAVSGHSISHDHAWSWVRQPPGEGLEWIGFISYSGITNYNPSLQGRVTISRDNSKNTLYLQMNSLRAEDTAVYYCARSLARTTAMDYWGEGTLVTVSSASTKGPSVFPLAPSSKSTSGGTAALGCLVKDYFPEPVTVSWNSGALTSGVHTFPAVLQSSGLYSLSSVVTVPSSSLGTQTYICNVNHKPSNTKVDKKVEPKSCDKTHTCPPCPAPELLGGDSVMLFPPKPKDTLMISRTPEVTCVVVDVSHEDPEVKFNWYVDGVEVHNAKTKPREEQENSTYRVVSVLTVLHQDWLNGKEYKCKVSNKALPHPIEKTISKAKGQPREPQVYTLPPSRDELTKNQVSLTCLVKGFYPSDIAVEWESNGQPENNYKTTPPVLDSDGSFFLYSKLTVDKSRWQQGNVFSCSVMHEALHNHYTQKSLSLSP chain 2: not shown | 39 µM | 84 µM | 1.9 µM | 50 µM | 0.028 µM |
| IL6R-P688/IL6R-L (antibody) chain 1: QVQLQESGPGLVKPSETLSLTCAVSGHSISHDHAWSWVRQPPGEGLEWIGFISYSGITNYNPSLQGRVTISRDNSKNTLYLQMNSLRAEDTAVYYCARSLARTTAMDYWGEGTLVTVSSASTKGPSVFPLAPSSKSTSGGTAALGCLVKDYFPEPVTVSWNSGALTSGVHTFPAVLQSSGLYSLSSVVTVPSSSLGTQTYICNVNHKPSNTKVDKKVEPKSCDKTHTCPPCPAPELLGGDSVMLFPPKPKDTLMISRTPEVTCVVVDVSPEDPEVKFNWYVDGVEVHNAKTKPREEQENSTYRVVSVLTVLHQDWLNGKEYKCKVNNKALPAPIEKTISKAKGQPREPQVYTLPPSRDELTKNQVSLTCLVKGFYPSDIAVEWESNGQPENNYKTTPPVLDSDGSFFLYSKLTVDKSRWQQGNVFSCSVMHEALHNHYTQKSLSLSP chain 2: not shown | 58 µM | 110 µM | 4.1 µM | 44 µM |  |
| IL6R-P604/IL6R-L (antibody) chain 1: QVQLQESGPGLVKPSETLSLTCAVSGHSISHDHAWSWVRQPPGEGLEWIGFISYSGITNYNPSLQGRVTISRDNSKNTLYLQMNSLRAEDTAVYYCARSLARTTAMDYWGEGTLVTVSSASTKGPSVFPLAPSSKSTSGGTAALGCLVKDYFPEPVTVSWNSGALTSGVHTFPAVLQSSGLYSLSSVVTVPSSSLGTQTYICNVNHKPSNTKVDKKVEPKSCDKTHTCPPCPAPELLGGDSVMLFPPKPKDTLMISRTPEVTCVVVDVSHEDPEVKFNWYVDGVEVHNAKTKPREEQENATYRVVSVLTVLHQDWLNGKEYKCKVSNKALPAPIEKTISKAKGQPREPQVYTLPPSRDELTKNQVSLTCLVKGFYPSDIAVEWESNGQPENNYKTTPPVLDSDGSFFLYSKLTVDKSRWQQGNVFSCSVMHEALHNHYTQKSLSLSP chain 2: not shown | 64 µM | 120 µM | 5.5 µM | 40 µM |  |
